According to patent publication US11278600B2, “Human alpha-galactosidase variants” (Codexis, Inc., priority 2014, dated 2022):

B1: 354 (protein)
chain: LDNGLARTPTMGWLHWERFMCNLDCQEEPDSCISEKLFMEMAERMVSEGWKDAGYEYLCIDDCWMAPQRDSEGRLQADPQRFPHGIRQLANYVHSKGLKFGIYADVGNKTCAGFPGSFGYYDIDAQTFADWGVDLLKFDGCYCDSLENLADGYKHMSLALNRTGRSIVYSCEWPLYMWPFQKPNYTEIRQYCNHWRNFADIDDSWASIKSILDWTSFNQETIVDVAGPGGWNDPDMLVIGNFGLSWNQQVTQMALWAIMAAPLFMSNDLRHISPQAKALLQDKDVIAINQDPLGKQGYQLRQGDNFEVWERPLSGLAWAVAIINRQEIGGPRSYTIAVASLGKGVACNPACFITQLLPVKRKLGLYNWTSRLKSHINPTGTVLLQLENTMQMSLKDLL
modifications: Synthetic Polypeptide sequence of Variant No. 354 of mature Human GLA
B2: 359 (protein)
chain: LDNGLARTPTMGWLHWERFMCNLDCQEEPDSCISEKLFMEMAERMVSEGWKDAGYEYLCIDDCWMAPQRDSEGRLQADPQRFPHGIRQLANYVHSKGLKFGIYADVGNKTCAGFPGSFGYYDIDAQTFADWGVDLLKFDGCYCDSLENLADGYKHMSLALNRTGRSIVYSCEWPLYMWPFIKPNYTEIRQYCNHWRNFADIDDSWASIKSILDWTSFNQETIVDVAGPGGWNDPDMLVIGNFGLSWDQQVTQMALWAIMAAPLFMSNDLRHISPQAKALLQDKDVIAINQDPLGKQGYQLRKGDNFEVWERPLSGLAWAVAVINRQEIGGPRSYTIAVASLGKGVACNPACFITQLLPVKRKLGFYNWTSRLKSHVNPTGTVLLQLENTMQMSLKDLL
modifications: Synthetic Polypeptide sequence of Variant No. 359 of mature Human GLA
B3: 357 (protein)
chain: LDNGLARTPTMGWLHWERFMCNLDCQEEPDSCISEKLFMEMAERMVSEGWKDAGYEYLCIDDCWMAPQRDSEGRLQADPQRFPHGIRQLANYVHSKGLKFGIYADVGNKTCAGFPGSFGYYDIDAQTFADWGVDLLKFDGCYCDSLENLADGYKHMSLALNRTGRSIVYSCEWPLYMWPFQKPNYTEIRQYCNHWRNFADIDDSWASIKSILDWTSFNQETIVDVAGPGGWNDPDMLVIGNFGLSWDQQVTQMALWAIMAAPLFMSNDLRHISPQAKALLQDKDVIAINQDPLGKQGYQLRKGDNFEVWERPLSGLAWAVAVINRQEIGGPRSYTIAVASLGKGVACNPACFITQLLPVKRKLGFYNWTSRLKSHVNPTGTVLLQLENTMQMSLKDLL
modifications: Synthetic Polypeptide sequence of Variant No. 357 of mature Human GLA
B4: 355 (protein)
chain: LDNGLARTPTMGWLHWERFMCNLDCQEEPDSCISEKLFMEMAERMVSEGWKDAGYEYLCIDDCWMAPQRDSEGRLQADPQRFPHGIRQLANYVHSKGLKFGIYADVGNKTCAGFPGSFGYYDIDAQTFADWGVDLLKFDGCYCDSLENLADGYKHMSLALNRTGRSIVYSCEWPLYMWPFQKPNYTEIRQYCNHWRNFADIDDSWASIKSILDWTSFNQETIVDVAGPGGWNDPDMLVIGNFGLSWDQQVTQMALWAIMAAPLFMSNDLRHISPQAKALLQDKDVIAINQDPLGKQGYQLRQGDNFEVWERPLSGLAWAVAIINRQEIGGPRSYTIAVASLGDGVACNPACFITQLLPVKRKLGFYNWTSRLKSHVNPTGTVLLQLENTMQMSLKDLL
modifications: Synthetic Polypeptide sequence of Variant No. 355 of mature Human GLA
B5: 358 (protein)
chain: LDNGLARTPTMGWLHWERFMCNLDCQEEPDSCISEKLFMEMAERMVSEGWKDAGYEYLCIDDCWMAPQRDSEGRLQADPQRFPHGIRQLANYVHSKGLKFGIYADVGNKTCAGFPGSFGYYDIDAQTFADWGVDLLKFDGCYCDSLENLADGYKHMSLALNRTGRSIVYSCEWPLYMWPFQKPNYTEIRQYCNHWRNFADIDDSWASIKSILDWTSFNQETIVDVAGPGGWNDPDMLVIGNFGLSWDQQVTQMALWAIMAAPLFMSNDLRHISPQAKALLQDKDVIAINQDPLGKQGYQLRKGDNFEVWERPLSGLAWAVAIINRQEIGGPRSYTIAVASLGKGVACNPACFITQLLPVKRKLGFYNWTSRLKSHINPTGTVLLQLENTMQMSLKDLL
modifications: Synthetic Polypeptide sequence of Variant No. 358 of mature Human GLA
B6: 296 (protein)
chain: LDNGLARTPTMGWLHWERFMCNLDCQEEPDSCISEKLFMEMAELMVSEGWKDAGYEYLCIDDCWMTPQRDSEGRLQADPQRFPHGIRQLANYVHSKGLKLGIYADVGNKTCAGFPGSFGYYDIDAQTFADWGVDLLKFDGCYCDSLENLADGYKHMSLALNRTGRSIVYSCEWPLYMWPFQKPNYTEIRQYCNHWRNFADIDDSWASIKSILDWTSRNQERIVDVAGPGGWNDPDMLVIGNFGLSWNQQVTQMALWAIMAAPLFMSNDLRHISPQAKALLQDKDVIAINQDPLGKQGYQLRQGDNFEVWERPLSGDAWAVAIINRQEIGGPRSYTIPVASLGGGVACNPGCFITQLLPVKRKLGFYNWTSRLKSHINPTGTVLLQLENTMQMSLKDLL
modifications: Synthetic Polypeptide sequence of Variant No. 296 of mature Human GLA
B7: 356 (protein)
chain: LDNGLARTPTMGWLHWERFMCNLDCQEEPDSCISEKLFMEMAERMVSEGWKDAGYEYLCIDDCWMAPQRDSEGRLQADPQRFPHGIRQLANYVHSKGLKFGIYADVGNKTCAGFPGSFGYYDIDAQTFADWGVDLLKFDGCYCDSLENLADGYKHMSLALNRTGRSIVYSCEWPLYMWPFQKPNYTEIRQYCNHWRNFADIDDSWASIKSILDWTSFNQETIVDVAGPGGWNDPDMLVIGNFGLSWDQQVTQMALWAIMAAPLFMSNDLRHISPQAKALLQDKDVIAINQDPLGKQGYQLRKGDNFEVWERPLSGLAWAVAIINRQEIGGPRSYTIAVASLGKGVACNPACFITQLLPVKRKLGFYNWTSRLKSHINPTGTVLLQLENTMQMSLKDLL
modifications: Synthetic Polypeptide sequence of Variant No. 356 of mature Human GLA

How the values were obtained:
Format in all cases: biochemical
[1] = HTP-analysis of yeast culture supernatants, no challenge (MUGal hydrolysis); conditions: activity of the variant/activity of Rd3BB (SEQ ID NO: 13), yeast culture supernatant
How it was run: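 GLA variants expressed in yeast INVSc1, secreted into SD-Ura broth over 66-84 h at 30° C; clarified supernatants tested without challenge. Supernatant mixed with McIlvaine buffer pH 4.8 and 2 mM MUGal (citrate/KCl, pH 4.6), 37° C for 30-180 min, carbonate-quenched, fluorescence Ex 355/Em 448 nm.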

[2] = HTP-analysis of supernatants pretreated with acid (MUGal hydrolysis); conditions: challenge at pH 4.0; activity of the variant/activity of Rd3BB (SEQ ID NO: 13); yeast culture supernatant
How it was run: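 Fluorescence of MUGal hydrolysis (Ex. 355 nm, Em. 448 nm) is read after sodium carbonate quench. The enzyme source is INVSc1 yeast culture supernatant, first exposed to pH 3.3-4.3 McIlvaine buffer at 37° C. for 1-3 h, then reacted at pH 4.8 for 30-180 minutes.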

[3] = HTP-analysis of supernatants pretreated with base (MUGal hydrolysis); conditions: challenge at pH 8.2; activity of the variant/activity of Rd3BB (SEQ ID NO: 13); yeast culture supernatant
How it was run: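 Fluorescence of released 4-MU (Ex 355 nm, Em 448 nm) after carbonate quench reports MUGal hydrolysis by GLA variants secreted from INVSc1 yeast. Before the acidic (pH 4.3-4.8) 30-180 min reaction at 37° C, supernatants had been pre-incubated at pH 7.0-9.7 for 1-18 h at 37° C.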

[4] = HTP-analysis of supernatants pretreated with bovine serum (MUGal hydrolysis); conditions: activity of the variant/activity of Rd3BB (SEQ ID NO: 13), yeast culture supernatant
How it was run: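 Yeast INVSc1 culture supernatants containing secreted GLA variants were mixed with bovine serum (20:80) and held 1 h at 37° C. Serum-treated samples then reacted with MUGal (4 mM stock) in citrate/McIlvaine buffer (pH 4.3/4.8) for 180 min at 37° C., were quenched with sodium carbonate, and read by fluorescence (Ex 355, Em 448 nm).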

| Molecule | Relative Activity of GLA Variants After No Challenge (NC) [1] | Relative Activity of GLA Variants After Challenge at pH 4.0 [2] | Relative Activity of GLA Variants After Challenge at pH 8.2 [3] | Relative Activity of GLA Variants After Challenge with Serum [4] |
| --- | --- | --- | --- | --- |
| B1 | − (− = <0.5 relative activity to Rd3BB (SEQ ID NO: 13)) | + (+ = 0.5 to 1.5 relative activity over Rd3BB (SEQ ID NO: 13)) | + (+ = 0.5 to 1.5 relative activity over Rd3BB (SEQ ID NO: 13)) | + (+ = 0.5 to 1.5 relative activity over Rd3BB (SEQ ID NO: 13)) |
| B2 | + (+ = 0.5 to 1.5 relative activity over Rd3BB (SEQ ID NO: 13)) | + (+ = 0.5 to 1.5 relative activity over Rd3BB (SEQ ID NO: 13)) | +++ (+++ = >2.5 relative activity over Rd3BB (SEQ ID NO: 13)) | + (+ = 0.5 to 1.5 relative activity over Rd3BB (SEQ ID NO: 13)) |
| B3 | + (+ = 0.5 to 1.5 relative activity over Rd3BB (SEQ ID NO: 13)) | ++ (++ = >1.5 to 2.5 relative activity over Rd3BB (SEQ ID NO: 13)) | +++ (+++ = >2.5 relative activity over Rd3BB (SEQ ID NO: 13)) | + (+ = 0.5 to 1.5 relative activity over Rd3BB (SEQ ID NO: 13)) |
| B4 | + (+ = 0.5 to 1.5 relative activity over Rd3BB (SEQ ID NO: 13)) | ++ (++ = >1.5 to 2.5 relative activity over Rd3BB (SEQ ID NO: 13)) | ++ (++ = >1.5 to 2.5 relative activity over Rd3BB (SEQ ID NO: 13)) | + (+ = 0.5 to 1.5 relative activity over Rd3BB (SEQ ID NO: 13)) |
| B5 | + (+ = 0.5 to 1.5 relative activity over Rd3BB (SEQ ID NO: 13)) | + (+ = 0.5 to 1.5 relative activity over Rd3BB (SEQ ID NO: 13)) | ++ (++ = >1.5 to 2.5 relative activity over Rd3BB (SEQ ID NO: 13)) | + (+ = 0.5 to 1.5 relative activity over Rd3BB (SEQ ID NO: 13)) |
| B6 | + (+ = 0.5 to 1.5 relative activity over Rd3BB (SEQ ID NO: 13)) | − (− = <0.5 relative activity to Rd3BB (SEQ ID NO: 13)) | − (− = <0.5 relative activity to Rd3BB (SEQ ID NO: 13)) | + (+ = 0.5 to 1.5 relative activity over Rd3BB (SEQ ID NO: 13)) |
| B7 | + (+ = 0.5 to 1.5 relative activity over Rd3BB (SEQ ID NO: 13)) | + (+ = 0.5 to 1.5 relative activity over Rd3BB (SEQ ID NO: 13)) | ++ (++ = >1.5 to 2.5 relative activity over Rd3BB (SEQ ID NO: 13)) | + (+ = 0.5 to 1.5 relative activity over Rd3BB (SEQ ID NO: 13)) |
